Measured values taken from patent US7408028B2, “Peptides, antibodies thereto, and their use in treatment of central nervous system, damage” (Sinapore General Hospital Pte Ltd., priority 2002, dated 2008).

Tests used:
[1] = target: T1, TNR-EGFL (Homo sapiens, UniProt Q92752); assay: Phage display panning (Ph.D-7 library), clones identified by ELISA and sequencing; assay type: binding; conditions: target TNR-EGFL, 3-4 rounds of affinity selection
T1 construct: GST; made in house
T1 sequence (Q92752 125-329): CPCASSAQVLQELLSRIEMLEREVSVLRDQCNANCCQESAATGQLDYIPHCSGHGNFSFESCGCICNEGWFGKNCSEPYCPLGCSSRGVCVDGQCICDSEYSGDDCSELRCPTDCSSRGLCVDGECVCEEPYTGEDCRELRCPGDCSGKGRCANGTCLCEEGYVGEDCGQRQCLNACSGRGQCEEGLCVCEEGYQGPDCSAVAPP
Experimental: (§1) Purification of TN-R, MAG and Nogo from adult mouse brains was performed by immumoaffinity chromatography as previously described (Pesheva, P et al, 1989). Generation and purification of the recombinant domains of TN-R, MAG, Nogo as fusion proteins with GST were performed as previously described (Xiao Z C et al, 1996). All these proteins were used as phage binding targets for rapid screening, using the Ph. D-7TM phage display peptide library kit (New England Biolabs, Ltd) according to the manufacturer's instructions.
(§2) Briefly, a library of phages, displaying different peptide sequences, was exposed to a plate coated with the target protein. Unbound phage was washed away and specifically bound phage was eluted by lowering pH. The eluted pool of phage was amplified, and the process was repeated 3-4 times.
(§3) The peptide-encoding sequences of the specific phage clones were determined by automated sequencing. The sequences of peptides which bound specifically to the targeted proteins were obtained.
(§4) Exemplary 7-mer peptide-endcoding sequences are shown below. “n” refers to the number of isolated phages displaying a peptide having the sequence shown (though there was of course some variability in the encoding nucleic acid sequences, owing to the degeneracy of the genetic code). “SIN” is an abbreviation for “SEQ ID NO.” and refers to the peptide sequence. The SEQ ID NOS of the nucleic acid sequences from the top to the bottom of the table are as follows: SEQ ID NO: 28, SEQ ID NO: 29, SEQ ID NO: 30, SEQ ID NO: 31, SEQ ID NO: 32, SEQ ID NO: 29, SEQ ID NO: 33. SEQ ID NO: 28, SEQ ID NO: 34, SEQ ID NO: 35.

[2] = target: T2, MAG (Mus musculus, UniProt P20917); assay: as above; assay type: binding; conditions: target MAG, 3-4 rounds of affinity selection
T2 construct: from tissue; host or cells: adult mouse brain
T2 sequence (P20917 20-627): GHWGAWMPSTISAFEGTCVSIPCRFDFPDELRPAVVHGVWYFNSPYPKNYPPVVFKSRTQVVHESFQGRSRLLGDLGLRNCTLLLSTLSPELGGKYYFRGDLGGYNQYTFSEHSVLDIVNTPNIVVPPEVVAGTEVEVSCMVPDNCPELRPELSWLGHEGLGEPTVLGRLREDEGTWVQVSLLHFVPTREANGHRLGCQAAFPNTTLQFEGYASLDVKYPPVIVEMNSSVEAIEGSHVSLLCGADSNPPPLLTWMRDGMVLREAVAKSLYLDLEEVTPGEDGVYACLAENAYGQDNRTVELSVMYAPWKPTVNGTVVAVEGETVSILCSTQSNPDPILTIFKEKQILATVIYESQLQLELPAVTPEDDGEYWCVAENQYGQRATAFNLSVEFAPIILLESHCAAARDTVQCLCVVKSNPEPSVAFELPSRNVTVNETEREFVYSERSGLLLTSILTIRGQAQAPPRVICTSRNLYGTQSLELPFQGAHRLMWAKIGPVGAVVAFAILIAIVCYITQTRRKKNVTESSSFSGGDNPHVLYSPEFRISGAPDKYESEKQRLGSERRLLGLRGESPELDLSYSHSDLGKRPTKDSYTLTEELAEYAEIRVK
Experimental: as §1, §2, §3, §4

[3] = target: T2, MAG; assay: Phage blocking of the inhibitory effect on NG108 cell adhesion; assay type: cell-based; conditions: peptide displayed on phage, 24 hours
Experimental: (§5) NG108 cells were plated on poly-DL-ornithine-treated tissue culture petri dish as single-cell suspensions. Specific phages that display the Nogo66-, MAG- and TNR-binding peptides identified above were added to the cell culture. Cells were maintained for 24 hours before fixation and staining with toluidine blue. Cell adhesion was determined as previously described.

[4] = target: T3, Nogo-66 (Homo sapiens, UniProt Q9NQC3); assay: as above; assay type: cell-based; set-up: made in house; conditions: peptide displayed on phage, 24 hours
T3 sequence (Q9NQC3 1055-1120): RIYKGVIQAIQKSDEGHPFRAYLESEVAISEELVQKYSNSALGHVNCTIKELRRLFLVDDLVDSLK
Experimental: as §5

[5] = target: T3, Nogo-66; assay: Phage display panning (Ph.D-7 library), clones identified by ELISA and sequencing; assay type: binding; set-up: GST; made in house; conditions: target Nogo-66, 3-4 rounds of affinity selection
Experimental: as §1, §2, §3, §4

[6] = test system: TNR-EGFL; assay: Phage blocking of the inhibitory effect on NG108 cell adhesion; assay type: cell-based; conditions: peptide displayed on phage, 24 hours
Experimental: as §5

[7] = test system: postnatal day 1 hippocampal neurons; conditions: coated protein; cited from earlier work
[8] = test system: NG108 cells; assay: Repulsion assay on coated Nogo domain substrates; assay type: cell-based, mouse neuroblastoma—rat glioma hybrid cells; conditions: GST as control
Experimental: NG108 cells (mouse neuroblastoma—rat glioma hybrid cells, commercially available from the American Tissue Type Culture Collection, Manassas, Va., USA, under accession number ATCC HB-12317) were plated on coated substrates using Nogol-25, Nogol-50, Nogol-66 and GST-Nogo-66 as well as GST as control. Generation and purification of the recombinant domains of Nogo, either alone or as fusion proteins with GST, were performed as previously described (Xiao Z C et al, 1996).

[9] = test system: NG108 cells; assay: Neurite outgrowth assay on coated Nogo domain substrates; assay type: cell-based, mouse neuroblastoma—rat glioma hybrid cells; conditions: coated substrate, GST as control
Experimental: NG108 cells were plated on coated substrates using Nogol-25, Nogol-50, Nogol-66, and GST-Nogo-66 as well as GST as control.

[10] = test system: NG108 cells; assay: Neuronal cell adhesion to protein spots on nitrocellulose-coated dishes; assay type: cell-based, mouse neuroblastoma—rat glioma hybrid cells; conditions: spots 5 μM GST-Nogo66, 100 μM Nogo66, Nogol-50, Nogol-25; 12 hours; p<0.05
Experimental: Tissue culture petri dishes (Becton Dickinson) with a diameter of 3.5 cm were coated with methanol-solubilized nitrocellulose according to Lagenaur and Lemmon (1987) and air-dried under a sterile hood. Then the petri dishes were incubated with PBS containing 5 μg/ml poly-DL-ornithine for 2 hours at 37° C. Subsequently, the dishes were washed three times with PBS and dried under a sterile hood.
Protein spots (1.5 μl of 5 μM GST, 5 μM GST-Nogo66, 100 μM Nogo66, 100 μM Nogol-50 or 100 μM Nogol-25) were applied to the nitrocellulose-coated surfaces of the petri dishes and incubated for 2 hours at 37° C. in a humidified atmosphere. Subsequently, the spots were washed three times with PBS. The dishes were then flooded with PBS containing 2% heat-inactivated fatty acid-free BSA (Sigma) and incubated overnight to block residual non-specific protein binding sites.
Then, the dishes were washed with PBS and NG108 cells were plated in 2 ml of Dulbecco's modified Eagle's medium containing 10% fetal bovine serum at a density of 2.5×10^5 cells/ml and incubated at 37° C. in a humidified atmosphere. After 12 hours, the dishes were gently washed three times with PBS and the cells fixed by flooding with PBS containing 2.5% glutaraldehyde. After fixation, cultures were stained with 0.5% toluidine blue (Sigma) in 2.5% sodium carbonate. […]
Cells adhering to the various spots were photographed and counted. […]

Molecule: HSIPDNI (From a phage library that displays random 7-mers)
- n, number of isolated phages displaying the peptide [1]: HSIPDNI (n = 3)
- n, number of isolated phages displaying the peptide ([1]; listed as SEQ ID NO. 4): 3

Molecule: YLTQPQS (From a phage library that displays random 7-mers)
- n, number of isolated phages displaying the peptide [2]: YLTQPQS (n = 19)
- n, number of isolated phages displaying the peptide ([2]; listed as SEQ ID NO. 1): 19
- Block of the inhibitory effect of MAG on NG108 cell binding [3]: able to block
- Block of the inhibitory effect of MAG on NG108 cell binding ([3]; listed as SEQ ID NO. 1): block
- Block of the inhibitory effect of Nogo-66 on NG108 cell binding [4]: able to block
- Block of the inhibitory effect of Nogo-66 on NG108 cell binding ([4]; listed as SEQ ID NO. 1): block
- n, number of isolated phages displaying the peptide [5]: YLTQPQS (n = 43)
- n, number of isolated phages displaying the peptide ([5]; listed as SEQ ID NO. 1): 43

Molecule: GSLPHSL (From a phage library that displays random 7-mers)
- n, number of isolated phages displaying the peptide [1]: GSLPHSL (n = 1)
- n, number of isolated phages displaying the peptide [5]: GSLPHSL (n = 8)
- n, number of isolated phages displaying the peptide ([5]; listed as SEQ ID NO. 2): 8

Molecule: QLPLMPR (From a phage library that displays random 7-mers)
- n, number of isolated phages displaying the peptide [2]: QLPLMPR (n = 5)
- n, number of isolated phages displaying the peptide ([2]; listed as SEQ ID NO. 7): 5

Molecule: TQLFPPQ (From a phage library that displays random 7-mers)
- n, number of isolated phages displaying the peptide [2]: TQLFPPQ (n = 7)
- n, number of isolated phages displaying the peptide [1]: TQLFPPQ (n = 18)
- n, number of isolated phages displaying the peptide ([1]; listed as SEQ ID NO. 3): 18
- Block of the inhibitory effect of TNR-EGFL on NG108 cell binding [6]: able to block
- Block of the inhibitory effect of TNR-EGFL on NG108 cell binding ([6]; listed as SEQ ID NO. 3): block

Molecule: YTTPPSP (From a phage library that displays random 7-mers)
- n, number of isolated phages displaying the peptide [1]: YTTPPSP (n = 1)
- n, number of isolated phages displaying the peptide ([1]; listed as SEQ ID NO. 6): 1

Molecule: HHMPHDK (From a phage library that displays random 7-mers)
- n, number of isolated phages displaying the peptide [1]: HHMPHDK (n = 1)
- n, number of isolated phages displaying the peptide ([1]; listed as SEQ ID NO. 5): 1

B1: rMAG: coated recombinant MAG (protein, UniProt P20916 20-626, looked up)
Myelin-associated glycoprotein: GHWGAWMPSSISAFEGTCVSIPCRFDFPDELRPAVVHGVWYFNSPYPKNYPPVVFKSRTQVVHESFQGRSRLLGDLGLRNCTLLLSNVSPELGGKYYFRGDLGGYNQYTFSEHSVLDIVNTPNIVVPPEVVAGTEVEVSCMVPDNCPELRPELSWLGHEGLGEPAVLGRLREDEGTWVQVSLLHFVPTREANGHRLGCQASFPNTTLQFEGYASMDVKYPPVIVEMNSSVEAIEGSHVSLLCGADSNPPPLLTWMRDGTVLREAVAESLLLELEEVTPAEDGVYACLAENAYGQDNRTVGLSVMYAPWKPTVNGTMVAVEGETVSILCSTQSNPDPILTIFKEKQILSTVIYESELQLELPAVSPEDDGEYWCVAENQYGQRATAFNLSVEFAPVLLLESHCAAARDTVQCLCVVKSNPEPSVAFELPSRNVTVNESEREFVYSERSGLVLTSILTLRGQAQAPPRVICTARNLYGAKSLELPFQGAHRLMWAKIGPVGAVVAFAILIAIVCYITQTRRKKNVTESPSFSAGDNPPVLFSSDFRISGAPEKYESERRLGSERRLLGLRGEPPELDLSYSHSDLGKRPTKDSYTLTEELAEYAEIRVK
- Axonal growth cones collapsed [7]: 60%

B2: denatured rMAG: denatured recombinant MAG (protein, UniProt P20916 20-626, looked up)
Myelin-associated glycoprotein: B1 Myelin-associated glycoprotein
modifications: denatured recombinant
notes: denatured recombinant MAG
- Axonal growth cones collapsed [7]: not observed

B3: Nogol-66: recombinant domain of Nogo (66-residue extracellular domain) used as coated substrate (protein)
chain: T3 sequence (Q9NQC3 1055-1120)
modifications: not fully specified
notes: recombinant domain of Nogo (66-residue extracellular domain) used as coated substrate
- NG108 cells repelled from coated substrate [8]: repelled significantly
- Neurite outgrowth of NG108 cells inhibited [9]: inhibited significantly
- NG108 cell counts adhering to protein spot compared to GST [10]: significantly reduced

B4: GST-Nogo-66: recombinant Nogo-66 domain as fusion protein with GST (protein)
chain: T3 sequence (Q9NQC3 1055-1120)
modifications: also: fused to GST
notes: recombinant Nogo-66 domain as fusion protein with GST
- NG108 cells repelled from coated substrate [8]: repelled significantly
- Neurite outgrowth of NG108 cells inhibited [9]: inhibited significantly
- NG108 cell counts adhering to protein spot compared to GST [10]: significantly reduced
